From article PMC8575462, “PP2A/B55α substrate recruitment as defined by the retinoblastoma-related protein p107” (eLife, 2021)

B1: GST-p107 R1R2 [not stated] / B55α (PP2A regulatory subunit B55α), endogenous in U-2 OS cells [human (endogenous in U-2 OS)] (parent complex)
chain 1: KVPTCEEVIFPNNFETGNGGNVQGHLPLMPMSPLMHPRVKEVRTDSGSLRRDMQPLSPISVHERYSSPTAGSAKRRLF
chain 2: MAGAGGGNDIQWCFSQVKGAVDDDVAEADIISTVEFNHSGELLATGDKGGRVVIFQQEQENKIQSHSRGEYNVYSTFQSHEPEFDYLKSLEIEEKINKIRWLPQKNAAQFLLSTNDKTIKLWKISERDKRPEGYNLKEEDGRYRDPTTVTTLRVPVFRPMDLMVEASPRRIFANAHTYHINSISINSDYETYLSADDLRINLWHLEITDRSFNIVDIKPANMEELTEVITAAEFHPNSCNTFVYSSSKGTIRLCDMRASALCDRHSKLFEEPEDPSNRSFFSEIISSISDVKFSHSGRYMMTRDYLSVKIWDLNMENRPVETYQVHEYLRSKLCSLYENDCIFDKFECCWNGSDSVVMTGSYNNFFRMFDRNTKRDITLEASRENNKPRTVLKPRKVCASGKRKKDEISVDSLDFNKKILHTAWHPKENIIAVATTNNLYIFQDKVN
B2: Myc-B55α wild type [not stated] / Flag-pRB [not stated] (parent complex)
chain 1: B1 chain 2
chain 2: MPPKTPRKTAATAAAAAAEPPAPPPPPPPEEDPEQDSGPEDLPLVRLEFEETEEPDFTALCQKLKIPDHVRERAWLTWEKVSSVDGVLGGYIQKKKELWGICIFIAAVDLDEMSFTFTELQKNIEISVHKFFNLLKEIDTSTKVDNAMSRLLKKYDVLFALFSKLERTCELIYLTQPSSSISTEINSALVLKVSWITFLLAKGEVLQMEDDLVISFQLMLCVLDYFIKLSPPMLLKEPYKTAVIPINGSPRTPRRGQNRSARIAKQLENDTRIIEVLCKEHECNIDEVKNVYFKNFIPFMNSLGLVTSNGLPEVENLSKRYEEIYLKNKDLDARLFLDHDKTLQTDSIDSFETQRTPRKSNLDEEVNVIPPHTPVRTVMNTIQQLMMILNSASDQPSENLISYFNNCTVNPKESILKRVKDIGYIFKEKFAKAVGQGCVEIGSQRYKLGVRLYYRVMESMLKSEEERLSIQNFSKLLNDNIFHMSLLACALEVVMATYSRSTSQNLDSGTDLSFPWILNVLNLKAFDFYKVIESFIKAEGNLTREMIKHLERCEHRIMESLAWLSDSPLFDLIKQSKDREGPTDHLESACPLNLPLQNNHTAADMYLSPVRSPKKKGSTTRVNSTANAETQATSAFQTQKPLKSTSLSLFYKKVYRLAYLRLNTLCERLLSEHPELEHIIWTLFQHTLQNEYELMRDRHLDQIMMCSMYGICKVKNIDLKFKIIVTAYKDLPHAVQETFKRVLIKEEEYDSIIVFYNSVFMQRLKTNILQYASTRPPTLSPIPHIPRSPYKFPSSPLRIPGGNIYISPLKSPYKISEGLPTPTKMTPRSRILVSIGESFGTSEKFQKINQMVCNSDRVLKRSAEGSNPPKPLKKLRFDIEGSDEADGSKHLPGESKFQQKLAEMTSTRTRMQKQKMNDSMDTSNKEEK

Variants of: B1
Experiment: GST pull-down, western blot; U2-OS lysates; triplicate; read off a plot

Variant | ratio to parent
chain 1 R43A | ~0.47
chain 1 R50A, chain 1 R51A | ~1
chain 1 R38A, chain 1 K40A | ~0.05

Variants of: B2
Experiment: co-immunoprecipitation (anti-Myc IP), western blot quantitation; 293T cells, co-transfected; read off a plot

Variant | ratio to parent
chain 1 D197K | ~-0.2
chain 1 K98A | ~0.65
chain 1 V228A | ~0.85
chain 1 S247A | ~1.5
chain 1 F280A | ~0.5
chain 1 H179A | ~0.8
chain 1 T436A | ~0.7
chain 1 D116A | ~0.35
chain 1 E347A | ~0.55
chain 1 K48E | ~0.95
chain 1 K345A | ~0.65
chain 1 L225A | ~0.2
chain 1 E283A | ~0.3
chain 1 S287A | ~1.5
chain 1 N181A | ~1.1
